Source: the supplement of paper PMC10126150
± gives the standard deviation of the averaged measurements.

Test system: ATP
Experiment: switch fluorescence ratio, 500 uM ATP over buffer (Cy3 cluster intensity, sum of 5 cycles each) (fold (ratio)); higher = stronger signal-on switching upon ATP binding; sequences stand for … in TCGTCGGCAGCGTCAGATGTGTATAAGAGACAGTTTTTTTTTTTTTTTTTTTTTTTTT…TC
Details: aptamer strand: ATP DNA aptamer (quencher-CACCTGGGGGAGTATTGCGGAGGAAGG + anchor), 100 nM annealed; ATP concentration: 500 uM
Summary of the method: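 The quencher-labelled ATP aptamer, at 100 nM, was annealed to Cy3-labelled switching-strand clusters on a modified Illumina MiSeq flow-cell. The clusters were imaged in selection buffer, then after 15 min with 500 uM ATP at 22 °C, and this buffer/ATP cycle ran five times with NaOH stripping and re-annealing between runs. Per-cluster fluorescence ratios, summed target-cycle over summed buffer-cycle Cy3 intensity, were averaged per switch-domain sequence. Clusters outside 100-1000 RFU were excluded.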
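Note: ATP exposure 15 min at 22 °C before imaging.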

Sequence	switch fluorescence ratio
AAACATAGCC	1.07 ± 0.011
GGGGGTGTGT	1.01 ± 0.035
TCGTTGACGT	0.985 ± 0.04
TCAATGTGGC	1.04 ± 0.036
TCAATGATAT	1.02 ± 0.019
GGTACTGGGG	1.06 ± 0.015
TTCCATGGGA	0.9894 ± 0.0098
TTTGCTCGCC	1.01 ± 0.04
TCCTTTGCGT	1.55 ± 0.39
ATTTTGCCTT	1 ± 0.015
AAATATTTCG	1.02 ± 0.03
TTTTGGGTGA	1.01 ± 0.024
AGTAGTATTT	1.017 ± 0.0014
CTGGGGGGCA	0.997 ± 0.017
AATTAATGAT	0.981 ± 0.029
GTTTGGAGAA	1.01 ± 0.034
ACCGGGGAAT	1.02 ± 0.027
CATACGTGCG	1 ± 0.042
TTAGATAGTA	1.01 ± 0.043
TAATGCGGGA	1 ± 0.027
GAGGAAGTTA	1.06 ± 0.097
ACTTGCTTAC	2 ± 0.022
TACTTCATCA	1.03 ± 0.02

Sequence	switch fluorescence ratio
AGCACGGGAA	1.03 ± 0.03
ACTACGATGG	1.05 ± 0.018
CATGCACCGG	0.986 ± 0.05
ATTGCTGTAC	1.56 ± 0.048
TAGAGGGGAG	1.02 ± 0.022
ATAGTTCAGC	0.9822 ± 0.0058
TGAAAAGGTA	1 ± 0.013
TGCCTGGCTG	0.99 ± 0.05
CGGGTGTGAC	1.02 ± 0.023
GAGGGAGGGG	1.02 ± 0.044
TTTATGTTTG	1.01 ± 0.035
GACGGGGGAT	1.081 ± 0.0031
GAAACCAGAG	1.39 ± 0.014
CGGTAGATGT	1 ± 0.034
AGGGTCTTCG	1.04 ± 0.012
GGGGGCCAGC	1.01 ± 0.02
TCGACATCGG	1.016 ± 0.0061
GATTTTCATG	1 ± 0.013
ACTTCGGGTA	1.003 ± 0.0017
ACATTAGGCT	1.02 ± 0.046
TGATAGATGT	0.983 ± 0.026
ACGCGGAGTG	1.02 ± 0.016
CAATGAGGAA	1.02 ± 0.018

Sequence	switch fluorescence ratio
GGGCAGCCCG	0.98 ± 0.014
TTTACTGGGC	1.03 ± 0.022
TCTTATAGGG	1 ± 0.042
ATAGCAGTTT	1.02 ± 0.013
CCGTCAAGGA	1.94 ± 1.2
GAACTCTTAG	1.02 ± 0.019
GTTTAATGTT	1.023 ± 0.0022
ATAATGGGTA	0.97 ± 0.025
AGCGTAGGGG	0.94 ± 0.033
ATTTTTGTTG	0.9883 ± 0.008
CGCTTTCACC	1.218 ± 0.0019
ACCAGTCTAG	0.979 ± 0.018
CAACTTTACC	1.16 ± 0.027
GGGCAACTGG	1.11 ± 0.15
ACAAGAATTA	1.01 ± 0.055
GGCCTAGGCT	1.02 ± 0.013
GGAGTGTGGG	0.986 ± 0.019
TGGAAGGTTT	1.08 ± 0.11
CATCAATGTG	0.997 ± 0.052
AGAGAGACGT	0.995 ± 0.029
AATTGGGGTG	1.06 ± 0.011
TTATTGCAGC	1.07 ± 0.063
TTTGCAACAG	0.986 ± 0.023

Sequence	switch fluorescence ratio
TGTGTGATTC	1.3 ± 0.49
GGATCCAGTA	1.02 ± 0.045
CAGTAGAGGT	0.9766 ± 0.0042
TCTAAAAAAG	0.991 ± 0.028
TGTTGCCGAT	0.986 ± 0.019
AAAGGATATG	0.995 ± 0.018
CTCTAGGGGC	1.128 ± 0.0065
ATGGCGAATT	0.995 ± 0.073
GGGGTATCGG	0.9828 ± 0.0085
TGCCTCGGCG	1.0022 ± 0.00021
AATTGCTTTC	1.06 ± 0.013
GGAAGGTA	0.997 ± 0.03
CGGAAGTGCC	1.016 ± 0.0014
AGAGCATTGA	1.013 ± 0.007
GGGTGCGCGA	1.04 ± 0.041
AGAGTAATCG	0.983 ± 0.07
GGTTTTGGAT	0.986 ± 0.019
GCAGATTTTG	0.98 ± 0.038
AAAGCTGCGT	0.9843 ± 0.0049
TCCAGGGGTG	1.65 ± 0.025
CTTTTAGGGT	0.996 ± 0.024
CGGACCATTC	1.27 ± 0.032
ACGTTTTTTG	0.99 ± 0.015

Sequence	switch fluorescence ratio
TTGCTTGGTT	0.996 ± 0.011
CCAGGAGGGA	1.002 ± 0.0041
AGCCCCATAG	1.17 ± 0.042
CAGGACATTA	0.994 ± 0.058
ATAATATACT	1.04 ± 0.055
GATTATTTTC	1.03 ± 0.061
ATGAAGGATG	1.01 ± 0.02
GAGAAGGGTG	1.01 ± 0.071
ACATGAGATT	1.04 ± 0.015
TTGGTAGTTG	0.954 ± 0.011
AAGGGGACTC	0.974 ± 0.04
CGATTTCAGG	1.02 ± 0.036
ATCGAGAGGC	1.06 ± 0.047
GTAGTCGTAC	1.11 ± 0.064
CGTGATGATG	0.982 ± 0.06
TGAAAAAAAT	1.05 ± 0.058
AGGGCGCTG	0.9885 ± 0.0045
CGTGTCCAGG	1.3 ± 0.024
AGGTTGTTAT	0.969 ± 0.013
GTGTGAAGGT	0.991 ± 0.032
ATGCTAATTT	0.9666 ± 0.0015
AGTGCGAAGG	0.97211 ± 0.00025
CAGTGCGGAG	0.999 ± 0.016

Sequence	switch fluorescence ratio
AGGGAGCCGG	0.965 ± 0.03
TACGTTAGCT	1.119 ± 0.0018
CTTTGGGGGA	0.983 ± 0.023
GGAAGGGCTT	1 ± 0.034
AGTCGACGTA	1.04 ± 0.089
TGAAATGGGA	1.0074 ± 0.00077
GATGCCTTTG	0.994 ± 0.018
ATGTTATATG	1.004 ± 0.0036
CCTGGGTTTC	1.008 ± 0.0052
TTTGCTTTTA	1.04 ± 0.023
TAAGTAGTAT	0.987 ± 0.017
TTTAAGGCAG	1.005 ± 0.0023
TTAAAAGGT	1.04 ± 0.056
ATAGGAGAGC	1.044 ± 0.0021
AGGGAATGAA	1.03 ± 0.085
GCGCTAATGT	1.08 ± 0.013
TAGGGTGTTT	0.993 ± 0.034
AATGGAAATC	1.003 ± 0.0086
ATTTGGCGCT	0.994 ± 0.059
ATTTCACTCG	1.01 ± 0.036
TGTTTGGGCT	1.02 ± 0.041
GGGTTAAGAG	1.01 ± 0.02
GATGAGGATT	1.01 ± 0.011

Sequence	switch fluorescence ratio
ACCTTGAATT	1 ± 0.0029
CGTCTATTTG	0.993 ± 0.023
AGGGCATAAG	0.982 ± 0.062
GGAATTGGGG	1.01 ± 0.027
CACGAAAGGA	1.07 ± 0.033
GAGGGGGACA	0.9779 ± 0.0081
GCTAAATTAT	0.963 ± 0.021
TGTCAGAAGC	0.994 ± 0.012
TTTACTAAGG	1.03 ± 0.02
ATTAGTAGGG	0.9807 ± 0.0041
TAATGGGATA	1.02 ± 0.055
GTTGGGTTCT	1.03 ± 0.021
TAGTGTGTGA	1.02 ± 0.014
GGCTTGCGTA	0.9512 ± 0.0029
GCTCGTTTAG	1.01 ± 0.02
CGGGAACTGG	0.97 ± 0.023
TTCATTTTGG	1.05 ± 0.07
CTTACGTGCC	1 ± 0.036
CCTAGCGGTT	1.1459 ± 0.00038
